Test results taken from paper PMC7820984.
Positions count from the first letter of the chain named.

B1: F2 (Wz and Wy W-boxes) (dsDNA)
DNA 1: TTTTAATAGATGACGCCGTTGACTTTTTCTTACATATTTGACCATTCGTCTTATCCAAAA
DNA 2: TTTTGGATAAGACGAATGGTCAAATATGTAAGAAAAAGTCAACGGCGTCATCTATTAAAA
B2: F2-m (Wz and Wy mutated) (dsDNA)
DNA 1: B1 DNA 1 with C23A, C42A
DNA 2: B1 DNA 2 with G19T, G38T

Molecular target: T1, MBP-WRKY21 (Oryza sativa, UniProt Q5FZT4 1-280)
T1 sequence: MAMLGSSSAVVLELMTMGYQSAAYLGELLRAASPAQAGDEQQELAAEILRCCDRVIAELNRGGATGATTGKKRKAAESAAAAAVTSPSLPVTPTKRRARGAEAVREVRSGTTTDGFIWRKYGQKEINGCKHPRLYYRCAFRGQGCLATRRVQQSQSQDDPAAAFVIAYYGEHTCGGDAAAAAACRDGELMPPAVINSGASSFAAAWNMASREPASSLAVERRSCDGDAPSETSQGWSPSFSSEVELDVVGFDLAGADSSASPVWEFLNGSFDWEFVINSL
Experiment: EMSA

| Binder | binding result |
| --- | --- |
| B1 | binds |
| B2 | no binding |
